Assay results as given in patent US20160022764A1 (RHYTHM PHARMACEUTICALS, published 2016).
Bridge positions count the residues as written; N and C are the ends. Square brackets hold non-standard residues; d marks the D form. Ends that are not written are not given here. dPhe(4-F) = N[C@H](Cc1ccc(F)cc1)C(=O)O; dTle = CC(C)(C)[C@@H](N)C(=O)O; Pen = CC(C)(S)[C@H](N)C(=O)O; hCys = N[C@@H](CCS)C(=O)O

B1: Compound 2: Ac-Arg-cyclo[Cys-D-Ile-His-D-Phe-Arg-Trp-Cys]-NH2 (peptide)
peptide: Ac-RC[dI]H[dF]RWC-NH2
modifications: disulfide 2-8
B2: Peptide 1 (peptide)
peptide: RCAHFRWC
modifications: cysteine pairing not given here; also: further groups not given here
B3: Compound 16: Ac-Arg-cyclo[hCys-D-Ala-D-Phe-Arg-Trp-Cys]-NH2 (peptide)
peptide: Ac-R[hCys][dA][dF]RWC-NH2
modifications: disulfide 2-7
SMILES: CC(=O)N[C@@H](CCCNC(=N)N)C(=O)N[C@H]1CCSSC[C@@H](C(N)=O)NC(=O)[C@H](Cc2c[nH]c3ccccc23)NC(=O)[C@H](CCCNC(=N)N)NC(=O)[C@@H](Cc2ccccc2)NC(=O)[C@@H](C)NC1=O
B4: Compound 9: Ac-Arg-cyclo[Cys-D-Ala-Asn-D-Phe-Arg-Trp-Cys]-NH2 (peptide)
peptide: Ac-RC[dA]N[dF]RWC-NH2
modifications: disulfide 2-8
SMILES: CC(=O)N[C@@H](CCCNC(=N)N)C(=O)N[C@H]1CSSC[C@@H](C(N)=O)NC(=O)[C@H](Cc2c[nH]c3ccccc23)NC(=O)[C@H](CCCNC(=N)N)NC(=O)[C@@H](Cc2ccccc2)NC(=O)[C@H](CC(N)=O)NC(=O)[C@@H](C)NC1=O
B5: Compound 15: Ac-Arg-cyclo[hCys-Ala-D-Phe-Arg-Trp-Cys]-NH2 (peptide)
peptide: Ac-R[hCys]A[dF]RWC-NH2
modifications: disulfide 2-7
SMILES: CC(=O)N[C@@H](CCCNC(=N)N)C(=O)N[C@H]1CCSSC[C@@H](C(N)=O)NC(=O)[C@H](Cc2c[nH]c3ccccc23)NC(=O)[C@H](CCCNC(=N)N)NC(=O)[C@@H](Cc2ccccc2)NC(=O)[C@H](C)NC1=O
B6: Compound 13: Ac-Arg-cyclo[Cys-D-Ala-Pro-D-Phe-Arg-Trp-Cys]-NH2 (peptide)
peptide: Ac-RC[dA]P[dF]RWC-NH2
modifications: disulfide 2-8
SMILES: CC(=O)N[C@@H](CCCNC(=N)N)C(=O)N[C@H]1CSSC[C@@H](C(N)=O)NC(=O)[C@H](Cc2c[nH]c3ccccc23)NC(=O)[C@H](CCCNC(=N)N)NC(=O)[C@@H](Cc2ccccc2)NC(=O)[C@@H]2CCCN2C(=O)[C@@H](C)NC1=O
B7: Compound 14: Ac-Arg-cyclo[Cys-D-Ala-Pro-D-Phe(p-F)-Arg-Trp-Cys]-NH2 (peptide)
peptide: Ac-RC[dA]P[dPhe(4-F)]RWC-NH2
modifications: disulfide 2-8
SMILES: CC(=O)N[C@@H](CCCNC(=N)N)C(=O)N[C@H]1CSSC[C@@H](C(N)=O)NC(=O)[C@H](Cc2c[nH]c3ccccc23)NC(=O)[C@H](CCCNC(=N)N)NC(=O)[C@@H](Cc2ccc(F)cc2)NC(=O)[C@@H]2CCCN2C(=O)[C@@H](C)NC1=O
B8: Compound 3: Ac-Arg-cyclo[Cys-D-Tle-His-D-Phe-Arg-Trp-Cys]-NH2 (peptide)
peptide: Ac-RC[dTle]H[dF]RWC-NH2
modifications: disulfide 2-8
B9: Compound 1: Ac-Arg-cyclo[Cys-D-Leu-His-D-Phe-Arg-Trp-Cys]-NH2 (peptide)
peptide: Ac-RC[dL]H[dF]RWC-NH2
modifications: disulfide 2-8
B10: Compound 5: Ac-Arg-cyclo[Cys-D-Ala-His(3-Me)-D-Phe-Arg-Trp-Cys]-NH2 (peptide)
peptide: Ac-RC[dA][His(3-Me)][dF]RWC-NH2
modifications: disulfide 2-8
B11: Compound 8: Ac-Arg-cyclo[Cys-D-Ala-Gln-D-Phe-Arg-Trp-Cys]-NH2 (peptide)
peptide: Ac-RC[dA]Q[dF]RWC-NH2
modifications: disulfide 2-8
SMILES: CC(=O)N[C@@H](CCCNC(=N)N)C(=O)N[C@H]1CSSC[C@@H](C(N)=O)NC(=O)[C@H](Cc2c[nH]c3ccccc23)NC(=O)[C@H](CCCNC(=N)N)NC(=O)[C@@H](Cc2ccccc2)NC(=O)[C@H](CCC(N)=O)NC(=O)[C@@H](C)NC1=O
B12: Compound 6: Ac-Arg-cyclo[Cys-D-Ala-His(1-Me)-D-Phe-Arg-Trp-Cys]-NH2 (peptide)
peptide: Ac-RC[dA][His(1-Me)][dF]RWC-NH2
modifications: disulfide 2-8
B13: Compound 7: Ac-Arg-cyclo[Cys-D-Ala-Trp-D-Phe-Arg-Trp-Cys]-NH2 (peptide)
peptide: Ac-RC[dA]W[dF]RWC-NH2
modifications: disulfide 2-8
SMILES: CC(=O)N[C@@H](CCCNC(=N)N)C(=O)N[C@H]1CSSC[C@@H](C(N)=O)NC(=O)[C@H](Cc2c[nH]c3ccccc23)NC(=O)[C@H](CCCNC(=N)N)NC(=O)[C@@H](Cc2ccccc2)NC(=O)[C@H](Cc2c[nH]c3ccccc23)NC(=O)[C@@H](C)NC1=O
B14: Compound 17: Ac-Arg-cyclo[hCys-D-Ala-D-Phe-Arg-Trp-Pen]-NH2 (peptide)
peptide: Ac-R[hCys][dA][dF]RW[Pen]-NH2
modifications: disulfide 2-7
SMILES: CC(=O)N[C@@H](CCCNC(=N)N)C(=O)N[C@H]1CCSSC(C)(C)[C@@H](C(N)=O)NC(=O)[C@H](Cc2c[nH]c3ccccc23)NC(=O)[C@H](CCCNC(=N)N)NC(=O)[C@@H](Cc2ccccc2)NC(=O)[C@@H](C)NC1=O
B15: Compound 22: Ac-Glu-cyclo[Cys-Ala-His-D-Phe-Arg-Trp-Cys]-NH2 (peptide)
peptide: Ac-ECAH[dF]RWC-NH2
modifications: disulfide 2-8
SMILES: CC(=O)N[C@@H](CCC(=O)O)C(=O)N[C@H]1CSSC[C@@H](C(N)=O)NC(=O)[C@H](Cc2c[nH]c3ccccc23)NC(=O)[C@H](CCCNC(=N)N)NC(=O)[C@@H](Cc2ccccc2)NC(=O)[C@H](Cc2c[nH]cn2)NC(=O)[C@H](C)NC1=O
B16: Compound 4: Ac-Arg-cyclo[Cys-D-Val-His-D-Phe-Arg-Trp-Cys]-NH2 (peptide)
peptide: Ac-RC[dV]H[dF]RWC-NH2
modifications: disulfide 2-8
B17: Compound 11: Ac-Arg-cyclo[Cys-D-Ala-Tyr-D-Phe-Arg-Trp-Cys]-NH2 (peptide)
peptide: Ac-RC[dA]Y[dF]RWC-NH2
modifications: disulfide 2-8
SMILES: CC(=O)N[C@@H](CCCNC(=N)N)C(=O)N[C@H]1CSSC[C@@H](C(N)=O)NC(=O)[C@H](Cc2c[nH]c3ccccc23)NC(=O)[C@H](CCCNC(=N)N)NC(=O)[C@@H](Cc2ccccc2)NC(=O)[C@H](Cc2ccc(O)cc2)NC(=O)[C@@H](C)NC1=O
B18: Compound 10: Ac-Arg-cyclo[Cys-D-Ala-Arg-D-Phe-Arg-Trp-Cys]-NH2 (peptide)
peptide: Ac-RC[dA]R[dF]RWC-NH2
modifications: disulfide 2-8
SMILES: CC(=O)N[C@@H](CCCNC(=N)N)C(=O)N[C@H]1CSSC[C@@H](C(N)=O)NC(=O)[C@H](Cc2c[nH]c3ccccc23)NC(=O)[C@H](CCCNC(=N)N)NC(=O)[C@@H](Cc2ccccc2)NC(=O)[C@H](CCCNC(=N)N)NC(=O)[C@@H](C)NC1=O

What follows are binders tested against melanocortin-5 receptor (human, UniProt P33032 1-325) (assay: cell-based or functional assay).
Chain of melanocortin-5 receptor (P33032 whole entry): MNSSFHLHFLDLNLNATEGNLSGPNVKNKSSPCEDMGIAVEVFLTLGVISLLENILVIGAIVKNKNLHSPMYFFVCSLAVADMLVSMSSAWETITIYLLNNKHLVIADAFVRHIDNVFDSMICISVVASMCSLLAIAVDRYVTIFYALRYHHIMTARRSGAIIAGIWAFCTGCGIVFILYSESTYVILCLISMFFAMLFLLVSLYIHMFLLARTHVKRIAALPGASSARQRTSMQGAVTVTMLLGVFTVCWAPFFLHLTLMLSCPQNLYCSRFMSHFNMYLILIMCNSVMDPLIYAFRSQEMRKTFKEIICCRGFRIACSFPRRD

Binder | Ratios of EC50 values: MC5/4 | cAMP Assay (EC-50) [nM]
B1 | 420 | 420
B2 |  | 1600
B3 | > 1340 | > 10000
B4 | 530 | 1490
B5 | 161 | 42
B6 | 13 | 707
B7 | 12 | 283
B8 |  | 672
B9 | 130 | 91
B10 |  | 1080
B11 | 155 | 255
B12 |  | 467
B13 | 7 | 259
B14 | 159 | 2180
B15 | > 2560 | 1280
B16 | 584 | 782

The binders below were run against melanocortin-1 receptor (human, UniProt Q01726 1-317) (assay: cell-based or functional assay).
Chain of melanocortin-1 receptor (Q01726 whole entry): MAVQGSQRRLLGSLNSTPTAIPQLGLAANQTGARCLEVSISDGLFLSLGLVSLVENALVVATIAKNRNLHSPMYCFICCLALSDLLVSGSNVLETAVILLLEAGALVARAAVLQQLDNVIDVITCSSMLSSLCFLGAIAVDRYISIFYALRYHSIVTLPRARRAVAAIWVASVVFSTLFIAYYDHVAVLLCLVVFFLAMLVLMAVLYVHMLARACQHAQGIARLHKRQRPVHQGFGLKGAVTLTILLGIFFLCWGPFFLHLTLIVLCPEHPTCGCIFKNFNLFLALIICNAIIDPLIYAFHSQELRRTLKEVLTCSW

Binder | Ratios of EC50 values: MC1/4 | cAMP Assay (EC-50) [nM]
B1 | 0.69 | 0.69
B17 | 6.67 | 301
B3 | 120 | 888
B4 | 90 | 248
B5 | 15 | 4
B6 | 5 | 280
B7 | 7 | 169
B8 |  | 1
B9 | 0.68 | 0.47
B10 |  | 4.1
B11 | 40 | 71
B12 |  | 30.4
B13 | 8 | 273
B14 | 15 | 195
B18 | 2.31 | 6.2
B15 | > 3 | 1.7
B16 | 0.93 | 1.25

The binders below were run against melanocortin-3 receptor (human, UniProt P41968 1-323) (assay: cell-based or functional assay).
Chain of melanocortin-3 receptor (P41968 whole entry): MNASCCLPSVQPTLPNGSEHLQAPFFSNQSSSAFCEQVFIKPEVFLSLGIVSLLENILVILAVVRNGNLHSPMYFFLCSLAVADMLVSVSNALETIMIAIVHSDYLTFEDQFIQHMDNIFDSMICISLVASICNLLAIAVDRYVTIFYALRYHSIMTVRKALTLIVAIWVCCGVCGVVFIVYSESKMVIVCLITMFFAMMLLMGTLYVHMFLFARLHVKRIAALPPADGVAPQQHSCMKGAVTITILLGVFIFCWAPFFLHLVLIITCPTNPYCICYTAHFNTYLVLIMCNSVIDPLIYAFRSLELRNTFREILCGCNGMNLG

Binder | Ratios of EC50 values: MC3/4 | cAMP Assay (EC-50) [nM]
B1 | 0.96 | 0.96
B17 | > 22.2 | > 1000
B3 | 420 | 3160
B4 | 30 | 81
B5 | 3.8 | 1
B6 | > 200 | > 10000
B7 | > 400 | > 10000
B8 |  | 0.7
B9 | 1.13 | 0.79
B10 |  | 406
B11 | 5 | 8.6
B12 |  | 4.3
B13 | > 290 | > 10000
B14 | 17 | 233
B18 | 1.45 | 3.9
B15 | > 20 | 9.9
B16 | 1.19 | 1.59

The binders below were run against melanocortin-4 receptor (human, UniProt P32245 1-332) (assay: cell-based or functional assay).
Chain of melanocortin-4 receptor (P32245 whole entry): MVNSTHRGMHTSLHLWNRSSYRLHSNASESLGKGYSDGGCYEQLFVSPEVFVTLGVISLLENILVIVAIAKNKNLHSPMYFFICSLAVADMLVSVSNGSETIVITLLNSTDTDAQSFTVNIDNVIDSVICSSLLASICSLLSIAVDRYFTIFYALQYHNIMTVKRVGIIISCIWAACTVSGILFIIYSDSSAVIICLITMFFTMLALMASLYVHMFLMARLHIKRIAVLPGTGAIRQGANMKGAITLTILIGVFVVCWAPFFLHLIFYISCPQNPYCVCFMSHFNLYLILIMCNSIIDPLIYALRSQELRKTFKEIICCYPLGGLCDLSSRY

Binder | cAMP Assay (EC-50) [nM]
B1 | 1
B17 | 45.1
B3 | 7.5
B4 | 3
B5 | 0.26
B6 | 56
B7 | 24
B9 | 0.7
B10 | 1.15
B11 | 1.6
B13 | 34
B14 | 13.7
B18 | 2.7
B15 | < 0.5
B16 | 1.34
